# Measured values published in patent US7507790 (UNIVERSITY OF SUSSEX, dated 2009).
# T1: SAF-p2a
# T1 construct: also called self-assembling peptide; straight
# T1 peptide: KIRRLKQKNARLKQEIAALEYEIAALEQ
# B1: SAF-p1 (peptide)
# peptide: KIAALKQKIASLKQEIDALEYENDALEQ
# notes: Synthetic de novo leucine-zipper peptide made by Fmoc solid-phase synthesis; also called self-assembling peptide; straight
# Biological target: T1, SAF-p2a
# Assay: co-assembly into fibres, seen by TEM (each peptide at 100 µM, 22° C. overnight)
# Experimental: All samples of fibres were prepared with SAF-p1 and SAF-p2a (each at 100 μM concentration) with the designated amounts of FiSh peptides, and incubated at 22° C. overnight following the techniques described in Pandya et al., 2000 (supra).
binder,measurement,value
B1,binding result,binds
